Measured values from patent publication US7994123B2, “Hybrid proteins with ErbB4 extracellular domain and neuregulin heparin-binding domain for targeting” (Wayne State University, priority 2004, dated 2011).

System: malignant masses (carcinomas, sarcomas, gliomas and medulloblastomas)
Assay: Anti-tumor effects in human patients
Assay type: in vivo
Text: All patients to be treated have histologically confirmed malignant masses confirmed by biopsy or cytology are entered. Malignant diseases including carcinomas, sarcomas, gliomas and medulloblastomas. […] Patients in all stages of malignant disease involving any organ system are included. Staging describes both tumor and host, including organ of origin of the tumor, histologic type, histologic grade, extent of tumor size, site of metastases and functional status of the patient. For a general classification includes the known ranges of Stage 1 (localized disease) to Stage 4 (widespread metastases), see Abraham J et al., Bethesda Handbook of Clinical Oncology, Lippincott, Williams & Wilkins, Philadelphia, Pa., 2001 (or a more recent edition). Patient history is obtained and physical examination performed along with conventional tests of cardiovascular and pulmonary function and appropriate radiologic procedures. The malignant masses are visible on x-ray or CT scan and/or are measurable with calipers. They have not been undergoing any other anticancer treatment for at least one month and have a clinical KPS of at least 50.
HBD-S-B4 is administered intravenously in doses of 0.01-100 μg/kg intratumorally once every 2-7 days. Patient Evaluation: Assessment of response of the tumor to the therapy is made once per week during therapy and 30 days thereafter using CT or x-ray visualization. Depending on the response to treatment, side effects, and the health status of the patient, treatment is terminated or prolonged from the standard protocol given above. Tumor response criteria are those established by the WHO and RECIST (Response Evaluation Criteria in Solid Tumors) summarized below (e.g., Abraham et al., supra)
The efficacy of the therapy in a patient population is evaluated using conventional statistical methods, including, for example, the Chi Square test or Fisher's exact test. Long-term and short term changes in measurements are evaluated separately.

B1: HBD-S-B4: prototypical fusion protein of NRG HBD, spacer and erbB4 ECD (SEQ ID NO:14) (protein)
chain: QKMKPATGLWVWVSLLVAAGTVQPSDSQSGYKKKERGSGKKPESAAGSQSPALPPRLKEMKSQESAAGSKLVLRCETSSEYSSLRFKWFKNGNELNRKNKPQNIKIQKKPGKSELRINKASLADSGEYMCKVISKLGNDSASANITIVESNEIITGMPASTEGAYVSSESPIRISVSTEGANTSSSTSTSTTGTSGTQSVCAGTENKLSSLSDLEQQYRALRKYYENCEVVMGNLEITSIEHNRDLSFLRSVREVTGYVLVALNQFRYLPLENLRIIRGTKLYEDRYALAIFLNYRKDGNFGLQELGLKNLTEILNGGVYVDQNKFLCYADTIHWQDIVRNPWPSNLTLVSTNGSSGCGRCHKSCTGRCWGPTENHCQTLTRTVCAEQCDGRCYGPYVSDCCHRECAGGCSGPKDTDCFACMNFNDSGACVTQCPQTFVYNPTTFQLEHNFNAKYTYGAFCVKKCPHNFVVDSSSCVRACPSSKMEVEENGIKMCKPCTDICPKACDGIGTGSLMSAQTVDSSNIDKFINCTKINGNLIFLVTGIHGDPYNAIEAIDPEKLNVFRTVREITGFLNIQSWPPNMTDFSVFSNLVTIGGRVLYSGLSLLILKQQGITSLQFQSLKEISAGNIYITDNSNLCYYHTINWTTLFSTINQRIVIRDNRKAENCTAEGMVCNHLCSSDGCWGPGPDQCLSCRRFSRGRICIESCNLYDGEFREFENGSICVECDPQCEKMEDGLLTCHGPGPDNCTKCSHFKDGPNCVEKCPDGLQGANSFIFKYADPDRECHPCHPNCTQGCNGPTSHDCIYYPWTGHSTLPQHAKN
For B1, the “% of Patients Responding, <PR” value (All Patients) was 5.3%, the “% of Patients Responding, CR” value (All Patients) was 59.7% and the “% of Patients Responding, PR” value (All Patients) was 11.3%. The “No. of patients, Response <PR” value (All Patients (400 treated)) was 21, the “No. of patients, Response CR” value (All Patients (400 treated)) was 239 and the “No. of patients, Response PR” value (All Patients (400 treated)) was 45. The “% of Patients Responding, CR + PR + <PR” value (Brain glioma/astrocytoma) was 61%, the “% of Patients Responding, CR + PR + <PR” value (Breast adenocarcinoma) was 85% and the “% of Patients Responding, CR + PR + <PR” value (Gastrointestinal carcinoma) was 77%. The “% of Patients Responding, CR + PR + <PR” value (Ovarian carcinoma) was 82%, the overall response rate (all tumors) was “about 76%” and the “patients with objective clinical responses” value (all tumors) was “Three hundred and five”. The “CBC, renal and liver functions tests after treatments” value (human, in vivo) was “do not change significantly”, the “average duration of responses” value (human, in vivo) was 24 months and the “incidence of side effects: bloody nose” value (human, in vivo) was 1 % of total treatments. For the same molecule, the “incidence of side effects: blurred vision” value (human, in vivo) was < 1 % of total treatments, the “incidence of side effects: chills” value (human, in vivo) was 10 % of total treatments and the “incidence of side effects: cramps” value (human, in vivo) was < 1 % of total treatments. The “incidence of side effects: diarrhea” value (human, in vivo) was 1 % of total treatments, the “incidence of side effects: dizziness” value (human, in vivo) was < 1 % of total treatments and the “incidence of side effects: fatigue” value (human, in vivo) was < 1 % of total treatments. The “incidence of side effects: feeling faint” value (human, in vivo) was < 1 % of total treatments, the “incidence of side effects: fever” value (human, in vivo) was 10 % of total treatments and the “incidence of side effects: flushing” value (human, in vivo) was 1 % of total treatments. For the same molecule, the “incidence of side effects: gastritis” value (human, in vivo) was < 1 % of total treatments, the “incidence of side effects: headache” value (human, in vivo) was 3 % of total treatments and the “incidence of side effects: hypertension” value (human, in vivo) was 2 % of total treatments. The “incidence of side effects: hypotension” value (human, in vivo) was 2 % of total treatments, the “incidence of side effects: itching/hives” value (human, in vivo) was 1 % of total treatments and the “incidence of side effects: joint pain” value (human, in vivo) was 2 % of total treatments. The “incidence of side effects: nausea” value (human, in vivo) was 5 % of total treatments, the “incidence of side effects: pain” value (human, in vivo) was 5 % of total treatments and the “incidence of side effects: rash” value (human, in vivo) was 2 % of total treatments. For the same molecule, the “incidence of side effects: redness on hand” value (human, in vivo) was < 1 % of total treatments, the “incidence of side effects: respiratory” value (human, in vivo) was 3 % of total treatments and the “incidence of side effects: tachycardia” value (human, in vivo) was 2 % of total treatments. The “incidence of side effects: twitching” value (human, in vivo) was < 1 % of total treatments, the “incidence of side effects: vomiting” value (human, in vivo) was 2 % of total treatments and the “time at which objective remissions are evident” value (human, in vivo) was “after four weeks of therapy”. For the same molecule, the toxicity (human, in vivo) was “mild short-lived fever, fatigue and anorexia not requiring treatment” and the positive tumor responses (patients with breast, ovarian and gastrointestinal tumors) was 77-85%.
